Measured values from patent US10501549B2, “Methods of inhibiting pathological angiogenesis with doppel-targeting molecules” (SEOUL NATIONAL UNIVERSITY R&DB FOUNDATION, priority 2015, dated 2019).

B1: 4D6: murine anti-doppel mAb of hybridoma clone 4D6; VL SEQ ID NO: 49, VH SEQ ID NO: 55 (antibody, V domains shown)
VH: QVQLHQSGSELARPGASVKLSCKASGYTFTNYWMQWVKQRPGQGLEWIGAIYPGDGNTRYSQKFKGKATLTADKSSSTAYMQLSSLASEDSAVYYCARRDYGSSYWYFDVWGAGTTVTVSS
VL: DVLMTQTPLSLPVSLGDQASISCRSSQSIVHSNGNTYLEWYLQKPGQSPKLLIYKVSNRFSGVPDRFSGSGSGTDFTLKISRVEAEDLGVYYCFQGSHVPLTFGAGTKLELKR
B2: 5C7: murine anti-doppel mAb of hybridoma clone 5C7; VL SEQ ID NO: 53, VH SEQ ID NO: 59 (antibody, V domains shown)
VH: QVQLQQSGTELVRPGSSVKISCKASGYAFSSHWMNWVKQRPGQGLEWIGQIYPRNGDTNYNGKFKGKATLTADKSSSTAYMQLSSLTSEDSAVYFCSRSTTIVTTGAYWGQGTLVTVSA
VL: DIQMTQSPSSLSASLGERVSLTCRASQEISGYLSWLQQKPDGTIKRLIYAASILDSGVPKRFSGSRSGSDYSLTISSLESEDFADYYCLQYASYPFMFGAGTKLELKR

Columns and labels:
VEGFR2 [1] = assay: VEGF-induced VEGFR2 phosphorylation in HUVECs in presence of rDPl; assay type: cell-based, human; conditions: in the presence of rDPl
EL4 tumor = assay: Rescue of EL4 tumor growth in Dpl+/− KO mice by rDPl; assay type: in vivo, Dpl+/− KO C57BL/6 mice
Method: To rescue angiogenesis and growth of tumor, Dpl^+/− KO mice were treated with intravenous injection of 1 mg/kg of rDPl three times after the 4th day of EL4 tumor inoculation. EL4 cells were also inoculated with 1 and 10 μg of rDPl in a mixture with 50 μL of Matrigel, in Dpl^+/− KO mice and grown for 10 days.

HUVEC spheroids [2] = assay: HUVEC spheroid sprouting with VEGF and rDPl; assay type: cell-based, human; conditions: co-treated with VEGF, different concentrations rDPl
Method: To test this hypothesis, HUVEC spheroids were treated with VEGF in the presence or absence of rDPl. VEGF promoted HUVEC spheroid sprouting; the sprouting was augmented when co-treated with different concentrations rDPl and in Hu.dpl spheroids (FIG. 27A).

HUVEC spheroids [3] = assay: HUVEC spheroids implanted in Matrigel-fibrin gel in vivo; parameters: species or system SCID mice; conditions: VEGF and rDPl-treated HUVEC spheroids
Excerpt: HUVEC spheroids in vivo were implanted in Matrigel-fibrin gel in the presence of doppel and VEGF following an established protocol (see Alajati et al., Nat Methods. 5:439-445 (2008) and Laib et al., Nat Protoc. 4:1202-1215 (2009)); Hu.dpl spheroids were used to compare. […] In contrast, the presence of VEGF and rDPl generated a complete and perfused vascular bed in the Matrigel-fibrin gel. […] These findings support that rDPl enhances angiogenesis in tumor.

TEC spheroids = assay: TEC spheroid sprouting; assay type: cell-based, mouse
Method: The spheroid-based in vivo angiogenesis assay was performed according to a published procedure. Briefly, 8×10^6 TECs or TEC^−/−dpl were suspended in […] media containing 20% methocel solution and 80% culture medium. Cells were divided into non-adherent plastic square petri dishes, 25 μL for each spheroid. Spheroids formed by TECs or TEC^−/−dpl were harvested and mixed in a matrigel/fibrin mixture that contained mouse VEGF and bFGF. TECs or TEC^−/−dpl spheroids (1000 spheroids per plug) were inoculated subcutaneously in the flank of each female SCID mouse (5-6 weeks, Jungang Animal Lab, Korea) or female Balb/c nude mice (Orinet bio, Seongnam, Korea). The spheroids were allowed to grow for 3 weeks. Cy5.5-labeled LMWH, at a dose 2.5 mg/kg, was injected intravenously, and at 2 hours after injection, its accumulation at the site of TEC implantation was checked using Optimax-MX3 (GE Medical Systems, Milwaukee, Wis.). In other experiments, Cy5.5-labeled LHbisD4, at a dose 10 mg/kg, was administered orally, and its distribution was also checked as described previously. The matrix plug was removed and part of the plugs was analyzed for microvessel density and drug accumulation by immunofluorescence staining.
Custom made murine anti-doppel mAbs were acquired and tested for recognition of mouse doppel present in host-derived blood vessels of tumors, ability to block doppel function in vitro, and ability to arrest tumor growth. The selection strategy involved screening for binding with mouse doppel using ELISA and testing for ability to detect doppel protein in TEC lysates using western blot. Six independent clones (7D9, 1B12, 1C8, 5C7, 4D6, and 6F11) were identified. Of the six clones, 5C7 and 4D6 abrogated mouse VEGF (mVEGF)-induced sprouting of TEC spheroids (FIG. 20A, B).

CT26 colon cancer = CT26 colon cancer model, tumor growth and angiogenesis; assay type: in vivo, mice; conditions: for reduction of tumor growth: intravenous; for tumor volume and weight: intravenous 5 and 10 mg/kg, compared to saline and control IgG
Method: Based on the in vitro data, clones 4D6 and 5C7 were selected to study the anti-tumor and anti-angiogenic effect of in a murine-derived CT26 colon cancer model. When the tumors reached an average size of 50 mm^3, the mice were treated with intravenous doses of 5 and 10 mg/kg 4D6 and 5C7 mAb clones. […] When administered at a dose of 10 mg/kg once or twice a week, 4D6 mAb reduced the tumor growth by 71.1±4.2% or 87.9±3.9%, respectively.

[4] = Preliminary safety observations in treated tumor-bearing mice; assay type: in vivo
[5] = tested on: HCT116 human colon cancer; assay: HCT116 human colon cancer mouse xenograft; assay type: in vivo, mice
Excerpt: The antitumor effect of 4D6 mAb was also observed in HCT116 human colon cancer mouse xenografts. 4D6 mAb inhibited tumor growth (FIG. 19C, D), doppel- and CD31-positive tumor vessels (FIG. 19E), and mean tumor blood vessels density commensurately with dose and dosing frequency (FIG. 19F, G).

doppel = doppel (Mus musculus, UniProt Q9QUG3); assay: Epitope mapping; assay type: binding; conditions: doppel peptide mapping
Excerpt: (The same sequence appears in both mouse and human doppel.) FIG. 32 discloses SEQ ID NOS 63-98, respectively, in order of appearance, in the x-axis of the graph and SEQ ID NO: 11 in the body of the graph.
(The corresponding sequence in human doppel is FPDGIH (SEQ ID NO: 61).) FIG. 33 discloses SEQ ID NOS 63-98, respectively, in order of appearance, in the x-axis of the graph and SEQ ID NOS 99-102, 12 and 103-104, respectively, left to right, in order of appearance, in the body of the graph.

VEGFR2 [6] = assay: mVEGF-induced VEGFR2 phosphorylation in TECs (immunoblot); assay type: cell-based, mouse; conditions: purified clones
VEGFR2 [7] = assay: VEGFR2 dimerization/clustering in Hu.dpl cells (proximity ligation assay, western blot); assay type: cell-based, human
Excerpt: The effect of doppel on VEGFR2 dimerization in the absence of VEGF was investigated. In situ proximity ligation assay (PLA) was used to see VEGFR2 homodimers/clusters in intact cells (FIG. 22G, H). […] It was observed that the dynamics between VEGFR2 monomer-dimer using western blot (FIG. 28A). In HUVECs, the prominent 125 kDa and a relative weaker 250 kDa band appeared as VEGFR2 monomer and dimer, respectively. In Hu.dpl cells, VEGFR2 was detected at 250 kDa band in immunoblots.

[8] = mVEGF-induced, cell supernatants of clones
[9] = purified clones, different concentrations

Molecule	VEGFR2 phosphorylation by VEGF (VEGFR2 [1])	growth of tumors (EL4 tumor; EL4 cells inoculated with 1 and 10 μg of rDPl in Matrigel)	localization in tumor tissues (EL4 tumor; intravenously injected rDPl)	HUVEC spheroid sprouting (HUVEC spheroids [2])	hemoglobin content of spheroid plugs (HUVEC spheroids [3])	sprouting of TEC spheroids (TEC spheroids; [8])	sprouting of TEC spheroids (TEC spheroids; [9])	reduction of tumor growth (CT26 colon cancer; 10 mg/kg once a week) [%]	reduction of tumor growth (CT26 colon cancer; 10 mg/kg twice a week) [%]	tumor volume and weight (CT26 colon cancer)	body weight [4]	clinical chemistry or hematological blood profile [4]	organ pathology upon inspection and histological analysis [4]	doppel- and CD31-positive tumor vessels and mean tumor blood vessels density ([5]; commensurately with dose and dosing frequency)	tumor growth ([5]; intravenous 5 and 10 mg/kg once a week, 10 mg/kg twice a week)	epitope bound (doppel)	VEGFR2 phosphorylation in TECs (VEGFR2 [6])	VEGFR2 dimerization/clustering (VEGFR2 [7]; Hu.dpl cells, in situ PLA)	VEGFR2 band in immunoblot (VEGFR2 [7]; treated Hu.dpl cells, untreated Hu.dpl 250 kDa (dimer)) [kDa]
rDPl: recombinant doppel (rDPl) protein	robustly and dose dependently increased	dose dependently rescued	concentrated and colocalized with VEGFR2- and CD31-positive vessels	augmented	higher than control and VEGF-treated spheroids	–	–	–	–	–	–	–	–	–	–	–	–	–	–
B1	–	–	–	–	–	abrogated	dose-dependently prevented	71.1±4.2	87.9±3.9	markedly regressed	no changes	no alteration	no obvious organ pathology	inhibited	inhibited	YWQFPD	dose-dependently prevented	–	–
B2	–	–	–	–	–	abrogated	dose-dependently prevented	–	–	markedly regressed	no changes	no alteration	no obvious organ pathology	–	–	FPDGIY	dose-dependently prevented	severely compromised	125
